Each substance was assayed against CXCL9_HUMAN (human) (UniProt Q07325) (assay: yeast surface display FACS re-test).
Chain of CXCL9_HUMAN (human) (Q07325 23-125 limits assumed): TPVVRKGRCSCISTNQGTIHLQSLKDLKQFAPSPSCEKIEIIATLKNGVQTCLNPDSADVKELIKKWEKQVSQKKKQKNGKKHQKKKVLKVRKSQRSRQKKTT

In order of rising % cells over threshold fluorescence:
1. P1124_IXORI (from UniProt A0A0K8RG61 29-83)  31%
2. P1074_IXORI (from UniProt A0A0K8RDH6 29-96)  35%
3. P458_IXORI (from UniProt A0A0K8R7D4 25-90)  37%
4. P1080_IXORI (from UniProt A0A090XBL6 20-118)  49%
5. P1086_IXORI (from UniProt A0A0K8RK34 29-94)  54%
6. P1100_IXORI (from UniProt A0A0K8R556 29-96)  55%

The substances below were run against CXCL12_HUMAN (human) (UniProt P48061) (assay: yeast surface display FACS re-test).
Chain of CXCL12_HUMAN (human) (P48061 22-89 limits assumed): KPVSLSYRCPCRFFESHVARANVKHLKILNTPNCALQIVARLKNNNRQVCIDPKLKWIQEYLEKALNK

In order of rising % cells over threshold fluorescence:
1. P1095_IXORI (from UniProt A0A0K8RCE3 24-112)  47%
2. P1080_IXORI (from UniProt A0A090XBL6 20-118)  53%

Each substance was assayed against CXCL10_HUMAN (human) (UniProt P02778) (assay: yeast surface display FACS re-test).
Chain of CXCL10_HUMAN (human) (P02778 22-98 limits assumed): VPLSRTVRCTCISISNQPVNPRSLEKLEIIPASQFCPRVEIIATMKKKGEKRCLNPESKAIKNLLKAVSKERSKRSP

In order of rising % cells over threshold fluorescence:
1. P1096_IXORI (from UniProt A0A0K8RKE4 24-114)  50%
2. P1134_IXORI (from UniProt A0A0K8RAI0 32-135)  66%

— patent US20240034757A1
